The text below walks through data of PMC8915372.

The assay deals with HLA-A*03:01 (HLA class I molecule of HLA-A3+ NBS fibroblasts) (human | human (endogenous in NBS fibroblasts)). The assay is described as follows: affinity purification with mass spectrometry.

Regarding ATFYVRTTINK [A3-RPL28^74-84(p76S>F) 11-mer peptide], the amount of peptide detected by PRM in the HLA class I eluate (fmol/million cells) was 3.67.
